Results: US20220306695A1, “COMPSTATIN ANALOGUES AND THEIR MEDICAL USES” (priority 2019, published 2022)
Starred links: 1 amine or outer side, 2 acyl side, 3 side chain; linkers in the order of their positions; H or OH if unused. Positions of bridges follow the written chain, without caps; N, C: chain ends. Non-standard residues stand in square brackets, D forms with d. Groups on a side chain read outwards from the residue. *: point of attachment. Trp(1-Me) = Cn1cc(C[C@H](N)C(=O)O)c2ccccc21; C18 diacid = O=C(O)CCCCCCCCCCCCCCCCC(=O)*; C16 diacid = O=C(O)CCCCCCCCCCCCCCC(=O)*; γGlu = O=C(O)[C@H](CCC(=O)[*:2])N[*:1]; hCys = N[C@@H](CCS)C(=O)O; AEEA = NCCOCCOCC(=O)O; Sar = CNCC(=O)O

B1: Compound 87 (peptide)
peptide: Ac-GEFCI[Trp(1-Me)]QDWGEHRC[Sar]EA-NH2
modifications: disulfide 4-14
SMILES: CC[C@H](C)[C@@H]1NC(=O)[C@@H](NC(=O)[C@H](Cc2ccccc2)NC(=O)[C@H](CCC(=O)O)NC(=O)CNC(C)=O)CSSC[C@@H](C(=O)N(C)CC(=O)N[C@@H](CCC(=O)O)C(=O)N[C@@H](C)C(N)=O)NC(=O)[C@H](CCCNC(=N)N)NC(=O)[C@H](Cc2c[nH]cn2)NC(=O)[C@H](CCC(=O)O)NC(=O)CNC(=O)[C@H](Cc2c[nH]c3ccccc23)NC(=O)[C@H](CC(=O)O)NC(=O)[C@H](CCC(N)=O)NC(=O)[C@H](Cc2cn(C)c3ccccc23)NC1=O
B2: Compound 104 (peptide)
peptide: Ac-EGSAYCI[Trp(1-Me)]QDWGEHRC[Sar]EGK([AEEA-AEEA-γGlu-C16 diacid])-NH2
modifications: disulfide 6-16
SMILES: CC[C@H](C)[C@@H]1NC(=O)[C@@H](NC(=O)[C@H](Cc2ccc(O)cc2)NC(=O)[C@H](C)NC(=O)[C@H](CO)NC(=O)CNC(=O)[C@H](CCC(=O)O)NC(C)=O)CSSC[C@@H](C(=O)N(C)CC(=O)N[C@@H](CCC(=O)O)C(=O)NCC(=O)N[C@@H](CCCCNC(=O)COCCOCCNC(=O)COCCOCCNC(=O)CC[C@H](NC(=O)CCCCCCCCCCCCCCC(=O)O)C(=O)O)C(N)=O)NC(=O)[C@H](CCCNC(=N)N)NC(=O)[C@H](Cc2c[nH]cn2)NC(=O)[C@H](CCC(=O)O)NC(=O)CNC(=O)[C@H](Cc2c[nH]c3ccccc23)NC(=O)[C@H](CC(=O)O)NC(=O)[C@H](CCC(N)=O)NC(=O)[C@H](Cc2cn(C)c3ccccc23)NC1=O
B3: Compound 111 (peptide)
peptide: Ac-EGSAYCI[Trp(1-Me)]QDWGEHRC[Sar]EK[γGlu]K([AEEA-AEEA-γGlu-C18 diacid])-NH2
modifications: disulfide 6-16
SMILES: CC[C@H](C)[C@@H]1NC(=O)[C@@H](NC(=O)[C@H](Cc2ccc(O)cc2)NC(=O)[C@H](C)NC(=O)[C@H](CO)NC(=O)CNC(=O)[C@H](CCC(=O)O)NC(C)=O)CSSC[C@@H](C(=O)N(C)CC(=O)N[C@@H](CCC(=O)O)C(=O)N[C@@H](CCCCN)C(=O)N[C@@H](CCC(=O)N[C@@H](CCCCNC(=O)COCCOCCNC(=O)COCCOCCNC(=O)CC[C@H](NC(=O)CCCCCCCCCCCCCCCCC(=O)O)C(=O)O)C(N)=O)C(=O)O)NC(=O)[C@H](CCCNC(=N)N)NC(=O)[C@H](Cc2c[nH]cn2)NC(=O)[C@H](CCC(=O)O)NC(=O)CNC(=O)[C@H](Cc2c[nH]c3ccccc23)NC(=O)[C@H](CC(=O)O)NC(=O)[C@H](CCC(N)=O)NC(=O)[C@H](Cc2cn(C)c3ccccc23)NC1=O
B4: Compound 117 (peptide)
peptide: Ac-SEYCI[Trp(1-Me)]QDWGEHRC[Sar]EGE[AEEA][AEEA]K([γGlu-Gly-γGlu-C18 diacid])-NH2
modifications: disulfide 4-14
B5: Compound 125 (peptide)
peptide: Ac-SEYCI[Trp(1-Me)]QEWGEHRC[Sar]EGE[AEEA][AEEA]K([γGlu-Gly-γGlu-C18 diacid])-NH2
modifications: disulfide 4-14
SMILES: CC[C@H](C)[C@@H]1NC(=O)[C@@H](NC(=O)[C@H](Cc2ccc(O)cc2)NC(=O)[C@H](CCC(=O)O)NC(=O)[C@H](CO)NC(C)=O)CSSC[C@@H](C(=O)N(C)CC(=O)N[C@@H](CCC(=O)O)C(=O)NCC(=O)N[C@@H](CCC(=O)O)C(=O)NCCOCCOCC(=O)NCCOCCOCC(=O)N[C@@H](CCCCNC(=O)CC[C@H](NC(=O)CNC(=O)CC[C@H](NC(=O)CCCCCCCCCCCCCCCCC(=O)O)C(=O)O)C(=O)O)C(N)=O)NC(=O)[C@H](CCCNC(=N)N)NC(=O)[C@H](Cc2c[nH]cn2)NC(=O)[C@H](CCC(=O)O)NC(=O)CNC(=O)[C@H](Cc2c[nH]c3ccccc23)NC(=O)[C@H](CCC(=O)O)NC(=O)[C@H](CCC(N)=O)NC(=O)[C@H](Cc2cn(C)c3ccccc23)NC1=O
B6: Compound 126 (peptide)
peptide: Ac-SEFCI[Trp(1-Me)]QDWGEHRCTEGE[AEEA][AEEA]K([γGlu-Gly-γGlu-C18 diacid])-NH2
modifications: disulfide 4-14
B7: Compound 153 (peptide)
peptide: SEFAIWQEWGEHRCGEGEXXK
modifications: not fully specified; N-acetyl; C-terminal amide; delta-cystathionine (Ctt2) thioether bridge A4-hCys14 (hCys written C); W6 is 1-Me-Trp; G15 is Sar; X19 and X20 are Peg3; K21 side chain bears [17-carboxy-heptadecanoyl][γGlu]G[γGlu]
B8: Compound 167 (peptide)
peptide: Ac-SEF[hCys]I[Trp(1-Me)]QEWGEHRA[Sar]EGE[AEEA][AEEA]K([γGlu-Gly-γGlu-C18 diacid])-NH2
modifications: thioether 4-14
B9: Compound 146 (peptide)
peptide: SEFAIWQDWGEHRCGEGEXXK
modifications: not fully specified; N-acetyl; C-terminal amide; delta-cystathionine (Ctt2) thioether bridge A4-hCys14 (hCys written C); W6 is 1-Me-Trp; G15 is Sar; X19 and X20 are Peg3; K21 side chain bears [17-carboxy-heptadecanoyl][γGlu]G[γGlu]
B10: Compound 124 (peptide)
peptide: Ac-SEFCI[Trp(1-Me)]QEWGEHRC[Sar]EGE[AEEA][AEEA]K([γGlu-Gly-γGlu-C18 diacid])-NH2
modifications: disulfide 4-14
SMILES: CC[C@H](C)[C@@H]1NC(=O)[C@@H](NC(=O)[C@H](Cc2ccccc2)NC(=O)[C@H](CCC(=O)O)NC(=O)[C@H](CO)NC(C)=O)CSSC[C@@H](C(=O)N(C)CC(=O)N[C@@H](CCC(=O)O)C(=O)NCC(=O)N[C@@H](CCC(=O)O)C(=O)NCCOCCOCC(=O)NCCOCCOCC(=O)N[C@@H](CCCCNC(=O)CC[C@H](NC(=O)CNC(=O)CC[C@H](NC(=O)CCCCCCCCCCCCCCCCC(=O)O)C(=O)O)C(=O)O)C(N)=O)NC(=O)[C@H](CCCNC(=N)N)NC(=O)[C@H](Cc2c[nH]cn2)NC(=O)[C@H](CCC(=O)O)NC(=O)CNC(=O)[C@H](Cc2c[nH]c3ccccc23)NC(=O)[C@H](CCC(=O)O)NC(=O)[C@H](CCC(N)=O)NC(=O)[C@H](Cc2cn(C)c3ccccc23)NC1=O
B11: Compound 149 (peptide)
peptide: GEFAIWQDWGEHRCGEAEXXK
modifications: not fully specified; N-acetyl; C-terminal amide; delta-cystathionine (Ctt2) thioether bridge A4-hCys14 (hCys written C); W6 is 1-Me-Trp; G10 is Sar; G15 is Sar; X19 and X20 are Peg3; K21 side chain bears [17-carboxy-heptadecanoyl][γGlu]G[γGlu]
B12: Compound 54 (peptide)
peptide: Ac-EGSAYCI[Trp(1-Me)]QDWGEHRC[Sar]E-NH2
modifications: disulfide 6-16
SMILES: CC[C@H](C)[C@@H]1NC(=O)[C@@H](NC(=O)[C@H](Cc2ccc(O)cc2)NC(=O)[C@H](C)NC(=O)[C@H](CO)NC(=O)CNC(=O)[C@H](CCC(=O)O)NC(C)=O)CSSC[C@@H](C(=O)N(C)CC(=O)N[C@@H](CCC(=O)O)C(N)=O)NC(=O)[C@H](CCCNC(=N)N)NC(=O)[C@H](Cc2c[nH]cn2)NC(=O)[C@H](CCC(=O)O)NC(=O)CNC(=O)[C@H](Cc2c[nH]c3ccccc23)NC(=O)[C@H](CC(=O)O)NC(=O)[C@H](CCC(N)=O)NC(=O)[C@H](Cc2cn(C)c3ccccc23)NC1=O
B13: Compound 107 (peptide)
peptide: {C16 diacid}-EGSEYCI[Trp(1-Me)]QDWGEHRC[Sar]E-NH2
modifications: disulfide 6-16
SMILES: CC[C@H](C)[C@@H]1NC(=O)[C@@H](NC(=O)[C@H](Cc2ccc(O)cc2)NC(=O)[C@H](CCC(=O)O)NC(=O)[C@H](CO)NC(=O)CNC(=O)[C@H](CCC(=O)O)NC(=O)CCCCCCCCCCCCCCC(=O)O)CSSC[C@@H](C(=O)N(C)CC(=O)N[C@@H](CCC(=O)O)C(N)=O)NC(=O)[C@H](CCCNC(=N)N)NC(=O)[C@H](Cc2c[nH]cn2)NC(=O)[C@H](CCC(=O)O)NC(=O)CNC(=O)[C@H](Cc2c[nH]c3ccccc23)NC(=O)[C@H](CC(=O)O)NC(=O)[C@H](CCC(N)=O)NC(=O)[C@H](Cc2cn(C)c3ccccc23)NC1=O
B14: Compound 102 (peptide)
peptide: Ac-FCI[Trp(1-Me)]QDWGEHRCTGAESK([AEEA-AEEA-γGlu-C16 diacid])-NH2
modifications: disulfide 2-12
SMILES: CC[C@H](C)[C@@H]1NC(=O)[C@@H](NC(=O)[C@H](Cc2ccccc2)NC(C)=O)CSSC[C@@H](C(=O)N[C@H](C(=O)NCC(=O)N[C@@H](C)C(=O)N[C@@H](CCC(=O)O)C(=O)N[C@@H](CO)C(=O)N[C@@H](CCCCNC(=O)COCCOCCNC(=O)COCCOCCNC(=O)CC[C@H](NC(=O)CCCCCCCCCCCCCCC(=O)O)C(=O)O)C(N)=O)[C@@H](C)O)NC(=O)[C@H](CCCNC(=N)N)NC(=O)[C@H](Cc2c[nH]cn2)NC(=O)[C@H](CCC(=O)O)NC(=O)CNC(=O)[C@H](Cc2c[nH]c3ccccc23)NC(=O)[C@H](CC(=O)O)NC(=O)[C@H](CCC(N)=O)NC(=O)[C@H](Cc2cn(C)c3ccccc23)NC1=O

Target: T1, Human C3 (human, UniProt P01024 23-1663)
Assay: cell-based or functional assay

T1 sequence (P01024 23-1663 limits assumed): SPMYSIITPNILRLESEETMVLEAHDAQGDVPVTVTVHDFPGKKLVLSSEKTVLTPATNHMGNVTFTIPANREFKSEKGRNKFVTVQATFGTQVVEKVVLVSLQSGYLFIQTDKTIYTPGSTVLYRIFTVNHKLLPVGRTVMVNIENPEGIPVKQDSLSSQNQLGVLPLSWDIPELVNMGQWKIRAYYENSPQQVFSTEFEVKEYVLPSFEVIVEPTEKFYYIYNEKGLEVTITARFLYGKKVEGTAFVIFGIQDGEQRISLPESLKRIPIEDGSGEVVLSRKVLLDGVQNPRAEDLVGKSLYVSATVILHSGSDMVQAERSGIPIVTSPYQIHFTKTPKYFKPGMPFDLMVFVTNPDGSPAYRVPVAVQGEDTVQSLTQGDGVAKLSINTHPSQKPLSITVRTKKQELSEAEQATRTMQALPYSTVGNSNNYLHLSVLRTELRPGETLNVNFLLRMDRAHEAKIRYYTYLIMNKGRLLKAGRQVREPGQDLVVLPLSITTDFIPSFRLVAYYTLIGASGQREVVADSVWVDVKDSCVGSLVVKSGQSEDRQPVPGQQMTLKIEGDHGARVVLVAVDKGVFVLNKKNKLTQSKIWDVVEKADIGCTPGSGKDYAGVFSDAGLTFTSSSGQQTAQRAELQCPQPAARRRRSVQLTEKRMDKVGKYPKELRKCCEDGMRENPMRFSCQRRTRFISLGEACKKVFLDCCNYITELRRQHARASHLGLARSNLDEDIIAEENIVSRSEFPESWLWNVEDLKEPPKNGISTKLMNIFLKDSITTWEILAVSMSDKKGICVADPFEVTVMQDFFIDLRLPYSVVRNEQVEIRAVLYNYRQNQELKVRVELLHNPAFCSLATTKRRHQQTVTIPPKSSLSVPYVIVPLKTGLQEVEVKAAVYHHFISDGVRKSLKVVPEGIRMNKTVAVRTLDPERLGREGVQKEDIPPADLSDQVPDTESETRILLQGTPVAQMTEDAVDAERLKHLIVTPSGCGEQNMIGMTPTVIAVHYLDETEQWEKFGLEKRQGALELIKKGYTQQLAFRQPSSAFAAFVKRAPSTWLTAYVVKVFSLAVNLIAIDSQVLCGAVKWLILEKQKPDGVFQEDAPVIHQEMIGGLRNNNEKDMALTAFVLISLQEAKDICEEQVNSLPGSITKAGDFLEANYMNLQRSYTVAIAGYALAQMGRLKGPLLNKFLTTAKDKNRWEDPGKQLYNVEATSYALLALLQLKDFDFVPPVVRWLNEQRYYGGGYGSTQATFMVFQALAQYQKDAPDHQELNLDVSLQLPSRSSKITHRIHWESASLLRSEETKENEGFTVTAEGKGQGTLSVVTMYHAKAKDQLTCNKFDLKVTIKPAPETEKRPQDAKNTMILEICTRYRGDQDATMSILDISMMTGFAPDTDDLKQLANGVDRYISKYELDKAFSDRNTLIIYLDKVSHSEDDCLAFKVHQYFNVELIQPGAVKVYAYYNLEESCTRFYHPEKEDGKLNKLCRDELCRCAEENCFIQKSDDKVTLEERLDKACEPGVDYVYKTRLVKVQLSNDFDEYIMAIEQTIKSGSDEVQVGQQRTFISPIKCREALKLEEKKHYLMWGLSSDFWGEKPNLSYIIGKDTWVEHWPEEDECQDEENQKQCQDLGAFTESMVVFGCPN

Binder	IC50[nM], inhibition of hemolysis
B1	< 100 nM

Target: T1, Human C3
Assay: SPR, C3 immobilised
Description: Surface plasmon resonance (SPR) was used to characterize peptides with respect to their binding affinity (Kd) for C3. Human C3 (Complement tech cat #A1 13c) was immobilised on individual flow cells of CM5 sensor chips (GE Healthcare) using standard amine coupling to a density of approximately 3000 resonance units (RU) in a buffer consisting of 10 mM phosphate pH 7.4, 150 mM NaCl, 0.05% Tween20.
For interaction experiments a multi-cycle experiment approach was used and performed using either a Biacore™ T200 or Biacore™ X100 instrument (GE Healthcare) at 25° C. Peptides were injected in increasing concentration series (5-8 different concentrations) for 60-120 s at a flow rate of 30 μL/min in a buffer consisting of 10 mM Tris buffer at pH 7.4, with 150 mM NaCl and 0.05% Tween20. This was followed by a dissociation period for up to 10 min. The C3 surface was regenerated between runs by a 45 s injection of 3 M MgCl₂.
Sensorgrams were double-referenced (reference surface, blanks) prior to analysis of the kinetic profiles by globally fitting data to a 1:1 Langmuir binding model to obtain association and dissociation rates for calculation of the equilibrium dissociation constant Kd. Each peptide was tested at in at least 2 independent experiments.

Kd	Binder
34 nM	B2
8.2 nM	B3
24 nM	B4
71 nM	B5
5.2 nM	B6
11.1 nM	B7
57.4 nM	B8
0.43 nM	B9
31 nM	B10
0.5 nM	B11
3 nM	B12
6.1 nM	B13
1.7 nM	B14

Target: T1, Human C3
Assay: cell-based or functional assay
Remark: another data set of the same source

Binder	IC50[nM], inhibition of hemolysis
B2	< 100 nM
B3	< 100 nM
B4	< 250 nM
B5	< 500 nM
B6	< 100 nM
B7	< 100 nM
B8	< 500 nM
B9	< 100 nM
B10	< 100 nM
B11	< 100 nM
B12	< 100 nM
B13	< 100 nM
B14	< 100 nM
